# Read-outs that look alike come from different tables or passages of the source.
# Experiments:
# E. coli wild-type LacY = E. coli wild-type LacY (Escherichia coli, UniProt P02920); conditions: cited from earlier work
# lactose permease genes = assay: Expression analysis of lactose permease genes by qPCR; format: cell-based, E. coli BL21(DE3); conditions: normalized to gapA, compared with parental strain, FIG. 3
# Procedure: A metabolically engineering derivative of E. coli BL21(DE3) which was capable of producing lacto-N-tetraose (LNT) was obtained by genetic engineering.
# For expression analyses individual clones obtained from above-referenced mutagenesis approach were inoculated in 25 ml mineral salts medium in shaking flasks. Expression analysis of each clone was performed in 3 replicates. The bacterial cells were grown at 30° C. and a relative humidity of 80% with constant agitation at 120 rpm. After 20 h of culturing, the optical densities of these precultures were determined and the main cultures were seeded to an OD600 of 0.05 in 25 ml of mineral salts medium. The main cultures were cultured for 20 h under the same conditions as the pre-cultures were cultured. Then the bacterial cells were harvested by centrifugation and used for extraction of RNA and subsequent expression analysis by qPCR. The relative quantification of expression levels was performed using the comparative Δ cycle threshold method, the calculated relative expression values were normalized to gapA and compared with the expression level in the parental strain used as control.
# [1] = test system: LNT-producing E. coli strain; assay: Lacto-N-tetraose production in lab scale fermentation (3 litre); format: cell-based
# Procedure: The identity of lacto-N-tetraose being produced was determined by multiple reaction monitoring (MRM) using an LC triple-quadrupole MS detection system (Shimadzu LCMS-8050). Precursor ions were selected and analyzed in quadrupole 1, followed by collision-induced fragmentation (CID) with argon and selection of fragment ions in quadrupole 3.
# The oligosaccharide LNT in particle-free culture supernatants or cytoplasmic fractions were separated by high performance liquid chromatography (HPLC) using a Waters XBridge Amide HPLC column (3.5 μm, 2.1 […] 50 mm) for both neutral or acidic sugars. Neutral sugars were eluted with isocratic flow of H2O with 0.1% (v/v) ammonium hydroxide. The HPLC system encompasses a Shimadzu Nexera X2 SIL-30ACMP autosampler run at 8° C., a Shimadzu LC-20AD pump, and a Shimadzu CTO-20AC column oven running at 35° C. for elution of neutral sugars and was adjusted to 50° C. for elution of acidic sugars. For the analysis of LNT 1 μl was injected into the instrument. Flow rate was set 0.3 mL/min corresponding to a run time of 5 min. LNT was analyzed in negative ion mode. The mass spectrometer was operated at unit resolution. Collision energy, Q1 and Q3 pre-bias were optimized for each analyte. Quantification methods were established using commercially available standards (Carbosynth and Elicityl).
# The impact of reduced lactose import and reduced lactose sensitivity by a bacterial strain on its oligosaccharide production was analyzed in a small-scale fermentation.
# In a first set of fermentations each of the bacterial strains was inoculated from a preculture in a fermentation broth containing 20 mM lactose.
# In these cultures, the lactose feed (2.5 ml/L/h) was started at the end of the batch phase.
# [2] = test system: E. coli strains expressing different variants of the E. coli lactose permease LacY; format: cell-based
# Procedure: Bacterial cell pellets from these cultures were used to inoculate 100 ml minimal medium in shaking flasks. These cultures were incubated for 16 hours at 37° C. in a shaker. The bacterial cells were then sedimented by centrifugation and the resulting pellets were washed twice with fresh cold (4° C.) culture medium and finally resuspended in cold medium. The optical density (OD600) of the cell suspension was set to 5 with cold medium, and the cell suspension is were stored on ice until use for the internalization assay.
# Three minutes prior to the transport assay, the bacterial cells were placed in a 37° C. thermo block. […] […] The bacterial cells on the filter were washed twice with 100 mM LiCl and the filter was used subsequently to quantify remaining radioactivity in a Tricarb 2800 scintillation counter (Perkin Elmar, Waltham, MA). To this end, the filters were transferred into scintillation tubes and overlaid with 6 ml Rotiszint eco plus (Roth, Karlsruhe, DE).
# In a second set of experiments, the transport assays were started by addition of a mixture of ^14C-labelled lactose and non-radiolabeled lactose to a final concentration of 5 mM lactose and 550,000 dpm. The bacterial cells were collected by filtration after 60 seconds incubation, and washed twice with 3 ml medium containing 5 mM unlabelled lactose.
# [3] = test system: bacterial LNT production strains; assay: Lactose sensitivity of bacterial LNT production strains (OD600 in shaking flasks); format: cell-based, E. coli BL21(DE3); conditions: 20 hours after addition, compared to growth in the absence of lactose
# Procedure: The culture medium used to grow the cells for the production of the desired oligosaccharide contained: 3 g/L KH2PO4, 12 g/L K2HPO4, 5 g/L (NH4)SO4, 0.3 g/L citric acid, 0.1 g/L NaCl, 2 g/L MgSO4×7 H2O and 0.015 g/L CaCl2×6 H2O, supplemented with 1 ml/L trace element solution (54.4 g/L ammonium ferric citrate, 9.8 g/L MnCl2×4 H2O, 1.6 g/L […], 1 g/L CuCl2×2 H2O, 1.9 g/L MnCl2×4 H2O, 1.1 g/L Na2MoO4×2 H2O, 1.5 g/L Na2SeO3, 1.5 g/L NiSO4×6 H2O). The pH of the medium was adjusted to 7.0. Lactose was added to the medium in a concentration of 10 mM to 25 mM for synthesis of the desired oligosaccharide by the cells and for testing the cells' sensitivity to lactose.
# The bacterial cells were grown at 30° C. and 80% relative humidity with constant agitation at 120 rpm. After 20 h culturing, the optical density of the pre-cultures was determined and the main cultures were inoculated to an OD600 of 0.3 in 25 ml of mineral salts medium. Lactose was added to the culture medium two hours after inoculation of the cultures to final concentrations of 10 or 25 mM. The optical densities (OD600) of the main cultures were determined 20 hours after addition of lactose.
# Chain of E. coli wild-type LacY (P02920 whole entry): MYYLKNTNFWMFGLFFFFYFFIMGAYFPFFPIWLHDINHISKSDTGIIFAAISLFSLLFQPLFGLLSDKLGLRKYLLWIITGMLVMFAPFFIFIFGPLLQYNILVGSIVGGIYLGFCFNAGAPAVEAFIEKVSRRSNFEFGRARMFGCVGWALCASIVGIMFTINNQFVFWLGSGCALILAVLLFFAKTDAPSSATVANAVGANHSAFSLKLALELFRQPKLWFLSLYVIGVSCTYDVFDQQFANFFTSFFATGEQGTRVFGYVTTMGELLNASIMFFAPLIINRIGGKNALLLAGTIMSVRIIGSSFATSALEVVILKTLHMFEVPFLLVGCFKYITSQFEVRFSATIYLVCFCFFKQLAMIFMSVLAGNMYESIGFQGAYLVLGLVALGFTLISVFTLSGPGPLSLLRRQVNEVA
molecule,measurement,setting,value
"CS[C@@H]1O[C@H](CO)[C@H](O)[C@H](O)[C@H]1O [TMG, methyl-1-thio-β,D-galactopyranoside, reference compound]",Km,E. coli wild-type LacY,540 µM
OC[C@H]1O[C@@H](O[C@@H]2[C@@H](CO)OC(O)(CO)[C@H]2O)[C@H](O)[C@@H](O)[C@H]1O (mixture of isomers) [lactulose],Km,E. coli wild-type LacY,240 µM
OC[C@H]1O[C@H](OCC2O[C@@H](O)[C@H](O)[C@@H](O)[C@@H]2O)[C@H](O)[C@@H](O)[C@H]1O (stereo partly shown) [melibiose],Km,E. coli wild-type LacY,240 µM
"O=C[C@H](O)[C@@H](O)[C@H](O[C@@H]1O[C@H](CO)[C@H](O)[C@H](O)[C@H]1O)[C@H](O)CO [lactose, β-D-galactopyranosyl-(1→4)-D-glucose]",Km,E. coli wild-type LacY,620 µM
"LacY(L293R): E. coli LacY variant with leucine at position 293 substituted with arginine (protein, UniProt P02920 1-417, looked up, variant L293R) Lactose permease: MYYLKNTNFWMFGLFFFFYFFIMGAYFPFFPIWLHDINHISKSDTGIIFAAISLFSLLFQPLFGLLSDKLGLRKYLLWIITGMLVMFAPFFIFIFGPLLQYNILVGSIVGGIYLGFCFNAGAPAVEAFIEKVSRRSNFEFGRARMFGCVGWALCASIVGIMFTINNQFVFWLGSGCALILAVLLFFAKTDAPSSATVANAVGANHSAFSLKLALELFRQPKLWFLSLYVIGVSCTYDVFDQQFANFFTSFFATGEQGTRVFGYVTTMGELLNASIMFFAPLIINRIGGKNALRLAGTIMSVRIIGSSFATSALEVVILKTLHMFEVPFLLVGCFKYITSQFEVRFSATIYLVCFCFFKQLAMIFMSVLAGNMYESIGFQGAYLVLGLVALGFTLISVFTLSGPGPLSLLRRQVNEVA",relative expression,lactose permease genes,at the same level
same,growth kinetics throughout the fermentation,"[1]; LNT fermentation, FIG. 7",regular growth kinetics
same,optical density reached in the culture,"[1]; LNT fermentation, FIG. 7, compared to strain bearing LacY",higher
same,setback in the OC600 and lactose-caused cell lysis,"[1]; continuous lactose feed 3.2 ml/L/h, lactose level kept high",without causing any setback in the OC600 and without apparent lactose-caused cell lysis
same,growth,[1]; fermentation broth containing 20 mM lactose at inoculation,did not display any problems in growth
same,lactose internalization (radioactivity incorporated),"[2]; exogenous lactose 0.5 mM, 30 seconds, FIG. 5A",reduced but detectable
same,lactose internalization (radioactivity incorporated),"[2]; exogenous lactose 5 mM, 60 seconds, FIG. 5B",reduced but detectable
same,growth (OD600),[3]; 10 mM lactose,not reduced
same,growth (OD600),[3]; 25 mM lactose,not reduced

# — patent US20240110213A1 (Chr. Hansen HMO GmbH, priority 2020, published 2024)
